Results as given in the DeepSol protein solubility set.

Experiment: soluble on expression in E. coli; label from the status in PepcDB or PDB records

Soluble on expression in E. coli, not soluble:
MGSDKIHHHHHHMSLPAMDAGIYLEETAPRALIEHNNILDNSVGVYLHGSADAMVRENKIVGDATLRVNERGNGVTVWNAPGAQVVGNDISKGRDGIFSNTSTHNTYKNNRFSDLRFAVHYMYTNDSEISGNISVGNNMGYVLMFSERLKVFDNIAVGSRDQGIMLNYVNYSDIHDNIINKAGKCVFAYNANYDKLSANHFENCQIGIHFTAAIEGTSLHDNSFINNESQVKYVSTRFLDWSEGGHGNYWSDNSAFDLNGDGFGDSAYRPNGIIDQIIWRAPVSRLLMNSPAISIVKWAQAQFPAVLPGGVVDSKPLMKPYAPKIQTRYQAMKDGLLKKVETRQLEWGRAENGSLN
MGSDKIHHHHHHMSLPLRSIHYFVEVARCESFSLAAERLHVSQSAVSHQVALLEGYLGDDLFVRRGRKILLTAVGENYFNEVAGAINAIEGATANVRQYDTRQVKLAVHGSLAVKWLIPALDEFRQRYPNVELTLQMLTQDGNFDTQWADCFITTQPPGMGYQRYHLYDETLKPYCSKALWAEAHRLESAGDLIQYPLLSAISAFASGEPGTDWQRWFKKANLRLPVSARVHHFSHLLLAAEAAKYGQGIALLNEFMTTEQEREESLFELPFHSIQTDDSFYFVYPSSTAKSPGLESLGDWLVALCRTRH
MGSDKIHHHHHHMSLQSGEWREQIDEVDAALIDEFQSDFPIQERPFEAVGDALGVSAGTALDRVKTLRDDGIFRRFGPVLNPPVIGSSTLAAVSAPEDRFDEVAEIINGYRQVNHNYARDHEWNMWFVVTAGSRQRRDEILAEIEERTGCSVLVLPMLTDYYIDLEFPVVNGDRFARESLETTDATATRISEDAAADLSELDRRLLLEIQSGFPLVATPYRDVADAVDADVSEVLSAIKRLQRTGCIKRIGCVVNHIVTGFDNNCMVVWDVPDDALDERGQAVGELPYVTLCYHRPRRPEQDWQYNLFTMIHGREADIVDEKIDELATDHLPYDHGRLYSTETLKQTGARYDDIVGQ
MGSDKIHHHHHHMSLSRIHGDDDAFGARLDFAVNVAEAQPPTWLIQRLQSAVTDLAAYPHSSDLAAVTAMIARYHGVSEDHVLVLSGVSEGFAMLPQLKPENAVIIHPGFSEPDIVLTDAQIPVHRCILAPPFELSFENIPANADLVVIGNPTNPTGVVHSKELLAQLCAPGRTVVIDEAFLDIVGEQYSMIDQLDAVEGELIIFRSLTKTWSIAGLRVGYAIARPETLARLSAYRRHWPMGTLQLRAIEAVFDTGIMQLPERRAEMIAQRTEMIEMLTNSGFRCVSSSQAPYILVRPPSTQPEELRMALKAQGIAVRRCDTFPGLEFSYWRLAVRPRDQVQRLLTAIDNIIGAKK
MGSDKIHHHHHHMSLVRLQDVSVRFDNTQILREAFFRLEPRDRVGLIGKNGSGKTTMLQLILDRITPESGTVTVEPGTRIGYFSQFSELNGASTITDVLDGLFSEIKAVEAELASIDTAIAGDPAGAELDRLIARQAELFEDMDRLDGWDYPRRIDKVLTTLGFSDAHRVCAIDELSGGWRNRAALAKILLEDPDVLLLDEPTNFLDVAGVEWLESWFRDFKGAAIIVSHDRKFLDAVVTRIIEVENFHLHEYPGNFGEYIVQKQFRLKSLEQQFVHESELLAFEAEGIADRREAAKAASRGLGNQLAKIKKSRTPRPVDQIVTEIYGGLHVKDVLCRVEGLGKSYGDKALFTGLGFEIRRGNRIVVLGANGSGKSTLLKVLTGEEEADAGVVSWAKGPGFVSYNRMLEELDDADTVSHAVNALPDSLAFSATRKSVNRFLAMFQFSEADLKQKIGNLSGGQKARVAMAQCLLSGASVLLLDEPTNHLDLSSTQVMERALMHFPGAVVVVSHDRFFSEKIANRYLVFGADAALPGEVEVRAA
MGSDKIHHHHHHMSMDKELITAQALAEALHLSVETIWRYTREKKIPCIELGNKQYRYKKDDVIKALSNGSIQESASSYETQEPRKLTYQDYLLLPEEPGYHFEILDGMLIKEPAPNVLHQRVSRRLQRILEDYFWKVDPKGEVFDAPLDVTLHDVNVVQPDLLYVASEQEVIVKDTRIDGPPMLVVEIMSPSTSRKDRLQKRRIYQEARVEHYWLVNPQEKMLECFAWRDGVYALVAGGMEEELVEHPDFPGLSIALRALWNREI
MGSDKIHHHHHHMSNTKKGLATAGYNDDLAKLEEIFLPNFFYKKMQYYFSSSGLISNDVLFVHYTSTESALDIIREKRVLMRNALHMPDRQEVQDGFNIMDGLLSNENNHWVEFRNRIEVVLPGVVDRVMKIYSDHSHGRNDGTYFLSVLEHDESEKELGRLSMWRAFCGQSQPVAMFLRLPALSAVSQVLRIFFNPVLYKGKGQQHLELAEVIKNVENHKSFLERLDPDLVTSAIVSMILINVLCVKHKVFKEEREWRCVYLPKCFTSETSARLIEPGVEEQVGASRNVYKMPLNAAIDPVLSDIDLSKIFDSLIIGPSKSPYATYEVFCDELKKIGVSDVESKVRVTEIPVR
MGSDKIHHHHHHMSPREVAAPHEVKARLYILDTNVLMHDPSALFRFEEHDILLPMIVLEELDQHKKGLSEQARNVRQVSRYLDEMLTDTADLDRGLVLPYAQGRLYFQTAAHQQALPEDLAGGKADHEILAVTLALQNRHPEKDVILVSKDINLRIKGRTLGIRVEDYQNDRALDDVDLLYTGAETLSADFWDLHSRDLDAWQESGRSYYKISGPAIQRWHSNQFIAINVEEGAPEDFAAIVREVRPEHAIIERITDYRSDRHAVWGILARNPEQNFALNLLMDPDIDFVTLLGHAGTGKTLLTLAAALHQIFEQKRYSEVIITRATVPVGDEIGFLPGTEEEKMLPWMGALEDNLEILARGSDEGGSWGRSATQDLINKRIRVKSMSFMRGRTFLEKFVIIDEAQNLTSKEMKTLITRAGPGTKIVCLGNIAQIDTPYLTETTSGLTYVVDRFKDWAYSGHITLRRGERSRLADFANDAL
MGSDKIHHHHHHMSQIISVHSFRGGTGKSNMTANLATTLALQGKRIAIIDTDIQSPGIHVIFGLNEQKMNNCLNDYLWGKCAIEDAAYDVTHLLKGEGGSGKLYLIPSSINPGQITRILREGYDVARLNDGFYEIINALDLDYLLIDTHPGLNEETLLSIAISDILVVILRPDQQDFQGTAVTLEVARKLEVPKMMLVVNKVLSTFDFNALQQEVESTYKTPVAGIVPLSEDIIRLASSNIFCLLYTSHPFSQVVQKITAQIIREQAKVAVRGAF
MGSDKIHHHHHHMSRESALSRASRYFEAGDFQSDLAHLVTYRSESQNTAPEARMECRRYLEEAMLPRLRALGFDCEIIDNPDPTGGPLLIGERREGEALPTILTYGHGDAVLGQEGRWREGLEPWVLVEEGDRLYGRGTADNKGQHLINIAALEAVLAERGHLGFNTRIVIEMSEEVGSVGLPDVFRAYKDRLTADVLIASDGPRLQPDVPTMFMGSRGGTTFDLVVETHEGAHHSGNWGGLLSDPAMILAHALACITDVRGQIKVPEWRPDSLTENVRMALRDLPVAGGQGPAVNPDWGEEDLTPAERVFGWNSFTVLAMVSGVPEAPVNAISGWARATCQLRYVVGTDPEDVVPALRRHLDAHGFESVEIRCHERGFFAATRLDPDHPWAQFVGESIRRTSGALHVLPNLAGSLPNDSFTDILEVPTIWVPHSYRGCSQHAPNEHVLKSVYHDALRVMAGVFWDLGEQGGPLA
MGSDKIHHHHHHMSRNTEATEEVGIWTGGRLNYKEGFFTQLPTDELAKGISEEVVRAISAKRNEPEWMLEFRLNAYRAWLDMDEPHWLKAHYDKLNYQDYSYYSAPSCGNCDDSCVSQPGAVQQTGANTFLSKEVEDAFEQLGVPVREGKEVAVDAIFDSVSVATTYREKLAEQGIIFCSFGEAIHDHPDLVRKYLGTVVPGNDNFFAALNAAVASDGTFIYVPKGVRCPMELSTYFRINAEKTGQFERTILVADEGSYVSYIEGCSAPVRDSYQLHAAVVEVIIHKDAEVKYSTVQNWFPGDNNTGGILNFVTKRALCEGENSKMSWTQSETGSAITWKYPSCILRGDNSIGEFYSVALTSGHQQADTGTKMIHIGKNTRSTIISKGISAGHSQNSYRGLVKIMPTATNARNFTQCDSMLIGADCGAHTFPYVECRNNSAQLEHEATTSRIGEDQLFYCLQRGISEEDAISMIVNGFCKDVFSELPLEFAVEAQKLLAISLEHSVG
MGSDKIHHHHHHMSRTLIIYSTVDGQTKAICDQIAEQCKSDTQPVTMVSLEEAQSVNLSYFDKVIIGASIRYGKHRPELFQYVNRHRAVLNGKKNAFFTVNVVARKPEKNTPETNPYMKKFLQLSLWQPQQLGVFAGKIDYPKYRFFDKFMIRFIMWITKGPTDTSGTYEFTDWDKVQEFAKAFSER
MGSDKIHHHHHHMSSDVRKALDPGTPYSRTLKQYSIDEKLAIISHAKNHGNRAAGREFNVAESSIREWRKNENKLIHNRDAAAARLNAQSSHSSGPARLNNMNNNNNNNHNHSKNNNIQYTQTVFPRRTPDDIVKHIQIAQITQLAMMKMDFTSLARIAPFLQAHQHQQQAQAKPDSISTASSVVGTPSSISSSSSTPPPSTSPVPTSSGSGRRKPRCPMKIVVAESNNPVNIEEIQENIDE
MGSDKIHHHHHHMSSEKLRVAAIDLGTNSFHMVIVEESEEKGIVEIDRVKDMICIGRGSISTKRLDDGAMEAGVATLRNFIVLATQRGVALHNILAFATSAIREADNRDEFIDMVRRETGLKIRVITGKEEAQFIYYGVRNAVTLRDKPDLLFDIGGGSVEFIIADKSKVHLLESRKIGVARMLERFVTTDPVSAHELHLLQQFFAAEMYGGAAEMAHELGVSRAIASSGTAQNIARMIRLGKHADGADVLNQSSFTRQEFESFYRQVIAMDASARRKLTGLDEKRVDLIVPGLILFDTIFRVFGIKDVVISDSALREGMVLHQIALIRGRDGSSQLDIRRQSVMELGYRCNWHKPHSEQVARLALMLFDELHPLHGLKERYRELLEYAAMLHNIGEFISISAHHKHSQYIIMNADLRGFSPTEIDIIGNVARYHRKQPPTERHPLYSQLKPSHRRVVDVLSGILRIANGLERGHRQNVQSITARIDQERIVLEALTQFEPDIELWAACGLKEWLEEVLGKPILIEARVR
MGSDKIHHHHHHMSSEMNGTAPFQDQGATDVSLLEDIVRVTKLQPADEAYSITRRGVAALMAQLLEPGAEARKVSKAVLDDMIAEIDRKLSLQMDEILHHPQFQALESSWRSLHFLVDRTDFRENNRIEFLNATKEELLDDFEDAPEVAKSGLYKTVYSAEYGQFGGKPFGAIIGNYDFGPGAQDIKLLQSLAAVAGMAHAPFMAAASPQFFGCDDFTALPNLKDISSILEGPQYAKWQAFRESEDARYVGLALPRFLLRLPYGEATRPAKCFNYEEQVSDSHDRYCWGNAAFAFATRLTESFANFRWCANIIGPQGGGTVHDLPLHQYQAMGAIQTKIPTEVLISERREFELAEGGFIALTMRKGSDNAAFFSANSVQKPKFFGSSKEGKEAELNYKLGLQLPYMFIVSRLAHYLKVIQREHIGTWKERGDLENELNLWIRQYVSEMDNPMPGVRSRRPLRQAEVTVEEVPGEPGWYRVGLKVTPHFKYMGAYFTLSLVGKLDKE
MGSDKIHHHHHHMSSFSLDFSLGTFQPLAAKMRPQTLKQYCGQEHLIGAGKPLYKAIENGHIHSMIFWGPPGTGKTTLAEIIAQQIHAQVERISAVTAGVKEIRESIERAKQNRLMGQQTILFVDEVHRFNKTQQDAFLPHIENGTIIFIGATTENPSFELNNALLSRVKVYILKPLTTSNIVTVLQNAIQDAEQGLGKERLIFAENVLETLAEYVNGDARLALNCLELMVDMADETEKGKLINHHLLTEVLGERQARFDKQGDRFYDLISALHKSIRGSAPDAALYWYARIITAGGDPLYVARRLLAIASEDVGNADPRAMQVALAAWDCFTRVGAAEGERAIAQAIVYLAVAPKSNAVYVAFKQAKKLAKEMPDYDVPVHLRNAPTHLMKELGYGAEYRYAHDEPNAYAAGEIYFPEELKNTKFYFPTDRGLEIQLKEKLARLHNLDEQSTKKRYK
